Source: the supplement of paper PMC10126150
± gives the standard deviation of the averaged measurements.
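Also: ATP exposure 15 min at 22 °C before imaging.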

The sequences below were run on ATP (assay: switch fluorescence ratio, 500 uM ATP over buffer (Cy3 cluster intensity, sum of 5 cycles each) (fold (ratio)); higher = stronger signal-on switching upon ATP binding; sequences stand for … in TCGTCGGCAGCGTCAGATGTGTATAAGAGACAGTTTTTTTTTTTTTTTTTTTTTTTTT…TC). Settings: aptamer strand: ATP DNA aptamer (quencher-CACCTGGGGGAGTATTGCGGAGGAAGG + anchor), 100 nM annealed; ATP concentration: 500 uM.
In short: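 Imaging in selection buffer was followed by imaging after 15 min with 500 uM ATP at 22 °C, for Cy3-labelled switching-strand clusters annealed to 100 nM quencher-labelled ATP aptamer on a modified Illumina MiSeq flow-cell. Five of these buffer/ATP cycles ran, separated by NaOH stripping and re-annealing. The fluorescence ratio per cluster is summed target-cycle over summed buffer-cycle Cy3 intensity, averaged per switch-domain sequence; clusters outside 100-1000 RFU were removed.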
ACGTTTTGTC gave a switch fluorescence ratio of 1 ± 0.061.
For ACGTTTTTAG, the switch fluorescence ratio was 1 ± 0.013.
ACTAAAATAT gave a switch fluorescence ratio of 1.021 ± 0.0093.
ACTAAAGACA was tested, and the switch fluorescence ratio was 1.0077 ± 0.00019.
ACTAAAGGCT gave a switch fluorescence ratio of 1.01 ± 0.015.
Sequence ACTAAAGGG has a switch fluorescence ratio of 1.02 ± 0.028.
For ACTAAAGGGC, the switch fluorescence ratio was 1.07 ± 0.034.
For ACTAACGGGG, the switch fluorescence ratio was 1.35 ± 0.084.
ACTAAGCTTG was tested, and the switch fluorescence ratio was 1 ± 0.033.
With ACTAAGGGGT the switch fluorescence ratio was 1.05 ± 0.016.
ACTAATGGCT showed a switch fluorescence ratio of 1.01 ± 0.02.
In the case of ACTACAAGTT, the switch fluorescence ratio is reported as 1 ± 0.026.
For ACTACATATG, the switch fluorescence ratio was 1.03 ± 0.016.
Work on ACTACCGGCG yielded a switch fluorescence ratio of 1.09 ± 0.022.
In the case of ACTACGTCGA, the switch fluorescence ratio is reported as 2.01 ± 0.21.
ACTAGATTGA was tested, and the switch fluorescence ratio was 1.01 ± 0.028.
For ACTAGGGCAG, the switch fluorescence ratio was 1.035 ± 0.005.
ACTAGGGCGT gave a switch fluorescence ratio of 1 ± 0.033.
Sequence ACTAGGTTAT has a switch fluorescence ratio of 1.16 ± 0.15.
With ACTAGTAACG the switch fluorescence ratio was 0.9938 ± 0.0098.
Sequence ACTAGTATGC has a switch fluorescence ratio of 0.992 ± 0.017.
Sequence ACTAGTATTA has a switch fluorescence ratio of 1 ± 0.036.
In the case of ACTAGTGGGG, the switch fluorescence ratio is reported as 0.996 ± 0.017.
ACTATCTATT showed a switch fluorescence ratio of 0.997 ± 0.034.
In the case of ACTATGAGCT, the switch fluorescence ratio is reported as 1.04 ± 0.041.
With ACTATGTCTT the switch fluorescence ratio was 1.005 ± 0.0049.
Sequence ACTATGTGTA has a switch fluorescence ratio of 0.989 ± 0.014.
ACTATTGGTG showed a switch fluorescence ratio of 1.12 ± 0.035.
For ACTATTTTTC, the switch fluorescence ratio was 1.016 ± 0.0035.
For ACTCAAACCA, the switch fluorescence ratio was 1.14 ± 0.035.
ACTCAATTTT gave a switch fluorescence ratio of 1.05 ± 0.03.
For ACTCAGGTGT, the switch fluorescence ratio was 3.23 ± 0.13.
Work on ACTCATTCTC yielded a switch fluorescence ratio of 1.04 ± 0.033.
With ACTCGAGGGA the switch fluorescence ratio was 1.01 ± 0.011.
Work on ACTCGCCCCA yielded a switch fluorescence ratio of 1.46 ± 0.084.
With ACTCGCGGGA the switch fluorescence ratio was 0.995 ± 0.028.
Sequence ACTCGGAGCG has a switch fluorescence ratio of 1.01 ± 0.038.
With ACTCGGCCGG the switch fluorescence ratio was 1.001 ± 0.009.
Work on ACTCGGGA yielded a switch fluorescence ratio of 1.13 ± 0.16.
Work on ACTCGGGGGC yielded a switch fluorescence ratio of 1.09 ± 0.23.
Work on ACTCGGTCTG yielded a switch fluorescence ratio of 1.02 ± 0.027.
ACTCTAGTAC showed a switch fluorescence ratio of 1.31 ± 0.034.
Work on ACTCTATTTG yielded a switch fluorescence ratio of 1.04 ± 0.025.
Sequence ACTCTTTGAT has a switch fluorescence ratio of 1.02 ± 0.0093.
For ACTGAACGGT, the switch fluorescence ratio was 1.14 ± 0.055.
In the case of ACTGAATGCT, the switch fluorescence ratio is reported as 0.973 ± 0.049.
Work on ACTGAATTTG yielded a switch fluorescence ratio of 1.02 ± 0.053.
For ACTGAGGCCT, the switch fluorescence ratio was 1.05 ± 0.045.
With ACTGATTTGT the switch fluorescence ratio was 0.996 ± 0.048.
For ACTGCCGGTC, the switch fluorescence ratio was 1.04 ± 0.041.
In the case of ACTGCGAATT, the switch fluorescence ratio is reported as 1.07 ± 0.023.
In the case of ACTGCGTAAA, the switch fluorescence ratio is reported as 0.991 ± 0.041.
ACTGCTTGGT gave a switch fluorescence ratio of 0.996 ± 0.017.
ACTGGAGGAG showed a switch fluorescence ratio of 1.01 ± 0.017.
ACTGGAGTTT was tested, and the switch fluorescence ratio was 1.01 ± 0.023.
ACTGGCTGAG was tested, and the switch fluorescence ratio was 1.01 ± 0.024.
Work on ACTGGGGATT yielded a switch fluorescence ratio of 1.04 ± 0.036.
Sequence ACTGGGGCGG has a switch fluorescence ratio of 1.022 ± 0.0063.
ACTGGGGGGA showed a switch fluorescence ratio of 1.02 ± 0.04.
Sequence ACTGGGGGGG has a switch fluorescence ratio of 0.995 ± 0.03.
Work on ACTGGGGTCA yielded a switch fluorescence ratio of 1 ± 0.03.
In the case of ACTGGGGTTA, the switch fluorescence ratio is reported as 0.9786 ± 0.0021.
Sequence ACTGGGTAAA has a switch fluorescence ratio of 1.002 ± 0.0086.
ACTGGGTTGG was tested, and the switch fluorescence ratio was 0.9922 ± 0.0074.
Work on ACTGGTGACT yielded a switch fluorescence ratio of 1.01 ± 0.037.
ACTGTAATGT showed a switch fluorescence ratio of 1.13 ± 0.011.
ACTGTATATT showed a switch fluorescence ratio of 1.18 ± 0.023.
For ACTGTATGTG, the switch fluorescence ratio was 1.05 ± 0.024.
In the case of ACTGTGGGGG, the switch fluorescence ratio is reported as 1.01 ± 0.022.
ACTGTGTTTT gave a switch fluorescence ratio of 0.972 ± 0.015.
Work on ACTGTTCAGC yielded a switch fluorescence ratio of 0.9948 ± 0.0062.
For ACTGTTTTTT, the switch fluorescence ratio was 1.02 ± 0.018.
Sequence ACTTAAATTA has a switch fluorescence ratio of 1.03 ± 0.036.
ACTTACAGAA showed a switch fluorescence ratio of 1.23 ± 0.011.
ACTTACGGTT gave a switch fluorescence ratio of 1.32 ± 0.18.
Work on ACTTAGGTAA yielded a switch fluorescence ratio of 1.01 ± 0.024.
ACTTATCTAC showed a switch fluorescence ratio of 1.05 ± 0.069.
Work on ACTTATGATA yielded a switch fluorescence ratio of 1.02 ± 0.054.
With ACTTATGGCT the switch fluorescence ratio was 1.05 ± 0.022.
With ACTTCTAAAC the switch fluorescence ratio was 1.07 ± 0.044.
With ACTTCTAATT the switch fluorescence ratio was 1.01 ± 0.038.
With ACTTCTTTGT the switch fluorescence ratio was 1.1 ± 0.11.
With ACTTGAAGTG the switch fluorescence ratio was 0.997 ± 0.021.
For ACTTGACGTG, the switch fluorescence ratio was 1.01 ± 0.059.
For ACTTGATCCC, the switch fluorescence ratio was 1.02 ± 0.043.
ACTTGCCGTA was tested, and the switch fluorescence ratio was 0.992 ± 0.071.
ACTTGGATGG was tested, and the switch fluorescence ratio was 0.995 ± 0.028.
ACTTGGCTGT was tested, and the switch fluorescence ratio was 0.99842 ± 0.00092.
With ACTTGGGACT the switch fluorescence ratio was 1.04 ± 0.047.
ACTTGGGCAT gave a switch fluorescence ratio of 0.993 ± 0.028.
In the case of ACTTGGGGCC, the switch fluorescence ratio is reported as 0.971 ± 0.012.
Sequence ACTTGGGGGA has a switch fluorescence ratio of 0.9907 ± 0.0057.
With ACTTGGGTAG the switch fluorescence ratio was 0.9928 ± 0.0011.
Sequence ACTTGGTCGT has a switch fluorescence ratio of 1.04 ± 0.012.
In the case of ACTTGGTCTT, the switch fluorescence ratio is reported as 0.974 ± 0.03.
ACTTGTAAAC showed a switch fluorescence ratio of 1.01 ± 0.025.
For ACTTGTAGGC, the switch fluorescence ratio was 1.01 ± 0.05.
Work on ACTTTAATTG yielded a switch fluorescence ratio of 1.002 ± 0.0014.
For ACTTTATTAG, the switch fluorescence ratio was 1.0103 ± 0.00038.
ACTTTGAAGT showed a switch fluorescence ratio of 0.993 ± 0.024.
ACTTTGAATC gave a switch fluorescence ratio of 0.998 ± 0.053.
For ACTTTGCGGT, the switch fluorescence ratio was 1.078 ± 0.0015.
ACTTTGCGTT was tested, and the switch fluorescence ratio was 0.992 ± 0.011.
For ACTTTGGACA, the switch fluorescence ratio was 1.038 ± 0.0052.
With ACTTTGGCCC the switch fluorescence ratio was 1.005 ± 1.1e-05.
For ACTTTGGGAT, the switch fluorescence ratio was 1.023 ± 0.0029.
AGAAAAACAT showed a switch fluorescence ratio of 1.034 ± 0.0073.
AGAAAAACCG showed a switch fluorescence ratio of 1.05 ± 0.052.
For AGAAAAATGC, the switch fluorescence ratio was 1.04 ± 0.088.
Sequence AGAAAAGAGT has a switch fluorescence ratio of 1.01 ± 0.017.
AGAAAAGGAA showed a switch fluorescence ratio of 1 ± 0.017.
For AGAAACAGCT, the switch fluorescence ratio was 1.04 ± 0.046.
AGAAAGCGAC showed a switch fluorescence ratio of 1.17 ± 0.093.
Sequence AGAAAGGAAG has a switch fluorescence ratio of 1.01 ± 0.024.
With AGAAAGGGCG the switch fluorescence ratio was 0.94 ± 0.037.
Sequence AGAAAGTTTG has a switch fluorescence ratio of 1.01 ± 0.044.
AGAAATACGG gave a switch fluorescence ratio of 1.21 ± 0.063.
AGAACCTGGG gave a switch fluorescence ratio of 0.981 ± 0.055.
AGAACGGCGG showed a switch fluorescence ratio of 0.972 ± 0.085.
AGAACTGAGA gave a switch fluorescence ratio of 0.998 ± 0.077.
With AGAACTGGCT the switch fluorescence ratio was 0.988 ± 0.011.
AGAACTTTTA showed a switch fluorescence ratio of 0.998 ± 0.015.
With AGAAGAGTAA the switch fluorescence ratio was 1.009 ± 0.0091.
AGAAGATTGT showed a switch fluorescence ratio of 0.989 ± 0.013.
AGAAGCGGTT showed a switch fluorescence ratio of 1.02 ± 0.025.
With AGAAGGGCTT the switch fluorescence ratio was 1 ± 0.026.
With AGAAGGGGGA the switch fluorescence ratio was 1.01 ± 0.039.
For AGAAGGGGGG, the switch fluorescence ratio was 0.998 ± 0.022.
Work on AGAAGGGGTA yielded a switch fluorescence ratio of 1.01 ± 0.046.
AGAAGGGTTG was tested, and the switch fluorescence ratio was 1 ± 0.023.
AGAAGTTAGG showed a switch fluorescence ratio of 0.973 ± 0.013.
Work on AGAAGTTGCG yielded a switch fluorescence ratio of 0.986 ± 0.0083.
AGAAGTTGGG showed a switch fluorescence ratio of 0.993 ± 0.02.
AGAAGTTTTC gave a switch fluorescence ratio of 0.973 ± 0.038.
AGAATCGACT gave a switch fluorescence ratio of 0.997 ± 0.014.
For AGAATCGGCG, the switch fluorescence ratio was 1.03 ± 0.0081.
With AGAATCGTTG the switch fluorescence ratio was 1.005 ± 0.0072.
With AGAATGGGTG the switch fluorescence ratio was 1.05 ± 0.036.
Sequence AGAATGTGGG has a switch fluorescence ratio of 0.996 ± 0.034.
With AGAATTAAG the switch fluorescence ratio was 0.96 ± 0.017.
Sequence AGAATTATTG has a switch fluorescence ratio of 0.9936 ± 0.0079.
In the case of AGAATTTATT, the switch fluorescence ratio is reported as 1.01 ± 0.039.
AGAATTTTAG was tested, and the switch fluorescence ratio was 1.01 ± 0.016.
AGACAGCGAG gave a switch fluorescence ratio of 1.015 ± 0.0021.
Sequence AGACAGGGCC has a switch fluorescence ratio of 0.988 ± 0.01.
AGACAGGGCT showed a switch fluorescence ratio of 1.02 ± 0.042.
Work on AGACAGGGGA yielded a switch fluorescence ratio of 1.02 ± 0.04.
AGACCAATTC was tested, and the switch fluorescence ratio was 1.095 ± 0.0037.
In the case of AGACCACTTG, the switch fluorescence ratio is reported as 1.036 ± 0.0069.
Work on AGACCGAGTT yielded a switch fluorescence ratio of 1.08 ± 0.096.
AGACCGCAGT showed a switch fluorescence ratio of 1.137 ± 0.0071.
In the case of AGACCTCATA, the switch fluorescence ratio is reported as 1.02 ± 0.021.
AGACGAAAAG gave a switch fluorescence ratio of 1.03 ± 0.038.
